Test results: publication PMC2112927

Target: rabbit skeletal muscle F-actin (rabbit), P68135
Assay: nanosecond emission anisotropy
Settings: remark: other sources report otherwise

rotational correlation time: > 400 ns
B1: IAENS-labeled Dictyostelium severin, P10733 1-362 (natural protein)
chain: MIKNRKLDITSTNVAGIGTDLDKKCRLDAASTEAQWKGVGQAPGLKIWRIENFKVVPVPESSYGKFYDGDSYIILHTFKEGNSLKHDIHFFLGTFTTQDEAGTAAYKTVELDDFLGGAPIQYRQCQSYESPSFLSLFPKYFILSGGVESGFNHVKPTEYKPRLLHISGDKNAKVAEVPLATSSLNSGDCFLLDAGLTIYQFNGSKSSPQEKNKAAEVARAIDAERKGLPKVEVFCETDSDIPAEFWKLLGGKGAIAAKHETAPTKSEKVLYKLSDASGSLKFSEVSRGKINKSSLKSEDVFIIDLGNEIYTWIGSKSSPNEKKTAFSHATQYLVNNKRCEYTPIVRVLENGTNQSFETLLSA
modifications: here or on the partner: one to two IAENS molecules attached to the protein (residues not stated)
